# Article PMC3386190, “The Rhoptry Proteins ROP18 and ROP5 Mediate Toxoplasma gondii Evasion of the Murine, But Not the Human, Interferon-Gamma Response” (PLoS Pathogens, 2012)
# Target: the molecule itself
# Assay: dynamic light scattering; 20 µM Irga6 with 10 mM GTP at 37°C in 50 mM Tris/5 mM MgCl2/2 mM DTT, in the presence or absence of 40 µM (His6)-MBP-tagged ROP5-CIII or (His6)-MBP; mean hydrodynamic radius over 35 minutes
protein,measurement,value
"Recombinant Irga6 (residues 1-413) (natural protein, immunity-related GTPase Irga6, mouse, residues 1-413; a TEV cleavage site stands between the tags and the protein; source: recombinant (Lim et al., submitted)) MGQLFSSPKSDENNDLPSSFTGYFKKFNTGRKIISQEILNLIELRMRKGNIQLTNSAISDALKEIDSSVLNVAVTGETGSGKSSFINTLRGIGNEEEGAAKTGVVEVTMERHPYKHPNIPNVVFWDLPGIGSTNFPPNTYLEKMKFYEYDFFIIISATRFKKNDIDIAKAISMMKKEFYFVRTKVDSDITNEADGKPQTFDKEKVLQDIRLNCVNTFRENGIAEPPIFLLSNKNVCHYDFPVLMDKLISDLPIYKRHNFMVSLPNITDSVIEKKRQFLKQRIWLEGFAADLVNIIPSLTFLLDSDLETLKKSMKFYRTVFGVDETSLQRLARDWEIEVDQVEAMIKSPAVFKPTDEETIQERLSRYIQEFCLANGYLLPKNSFLKEIFYLKYYFLDMVTEDAKTLLKEICLRN",binding result,binds
